For this assay, the system named is MCF7 tumors. The assay can be described thus: MCF7 breast tumor xenograft, tumor volume. It is filed as in vivo, NCr nude mice. The protocol: After MCF7 or MCF7/PRLR tumors reached an average volume of ˜150-200 mm^3 (14-16 days post implantation), mice were randomized into treatment groups (n=8-9 mice/group) and received a single dose or three once-weekly doses of H1H6958N2-DM1, control ADC, or vehicle control, administered systemically by intravenous tail-vein injection. Tumor size and body weight were measured in vivo twice per week throughout the duration of the study.
The T47Dv11 model was used to assess the activity of H1H6958N2-DM1 in a model with significant levels of endogenous PRLR. As parental T47D cells are poorly tumorigenic, in vivo passaging was employed to develop a variant with consistent tumorigenicity. Initially, 10×10^6 parental T47D cells were implanted subcutaneously (SC) into the left flank of female C.B.-17 SCID mice (Taconic, Hudson N.Y.). Tumors were supplemented with a 90-day release 1.7 mg estrogen pellet (Innovative Research America). Where T47D tumors were observed, they were excised and cut into 3 mm fragments and subsequently implanted into the left flank of separate female C.B.-17 SCID mice. Subsequent passaging was performed until a large tumor was disaggregated into a single cell suspension. The cells (named T47Dv11) from this tumor were then cultured in vitro and expanded. […] For efficacy studies, mice were implanted with 7.5×10^6 T47Dv11 cells into the left flank of female C.B.-17 SCID mice supplemented with a 90-day release 0.72 mg/pellet estrogen pellet. For MCF7 and MCF7/PRLR tumor xenografts, 2×10^7 MCF7/PRLR cells were implanted SC into the left mammary fat pad of female NCr nude mice (7-8 weeks old) supplemented with 90-day release 0.72 mg/pellet estrogen pellets. Tumors were measured with calipers twice a week for the duration of each study. Tumor volume was calculated using the formula TV=(length×width^2)/2.

Here are results for one molecule from patent US10925971B2, “Methods of treating PRLR positive breast cancer” (Regeneron Pharmaceuticals, Inc., priority 2016, dated 2021).

B1: H1H6958N2-DM1: anti-PRLR antibody H1H6958N2 conjugated to the maytansinoid DM1 through an SMCC linker (conjugate)
VH: QVQLVESGGGVVQPGRSLRLSCGASGFTFRNYGMQWVRQGPGKGLEWVTLISFDGNDKYYADSVKGRFTISRDNSKNTLFLQMNSLRTEDTAVYYCARGGDFDYWGQGTLVTVSS
VL: DIQMTQSPSSLSASVGDRVTITCRASQDIRKDLGWYQQKPGKAPKRLIYAASSLHSGVPSRFSGSGSGTEFTLTISSLQPEDFATYYCLQHNSYPMYTFGQGTKLEIK
In the case of B1, the “anti-tumor activity” value reads like this: (repeat treatment (q7dx3), 10 and 15 mg/kg, relative to control ADC) “significantly inhibited MCF7 tumor growth”; (single dose 15 mg/kg, relative to control ADC) “significantly inhibited the growth of the MCF7 tumors”; (single dose of 5 or 10 mg/kg) “moderate in vivo anti-tumor activity”.
